Experimental data reported in patent EP4772539A1 (Jiangsu Hengrui Pharmaceuticals Co., Ltd., dated 2026).
Where two headings read alike, the source gives them in different places.

B1: Anti-CTLA4 antibody Tre (antibody, V domains shown)
VH: QVQLVESGGGVVQPGRSLRLSCAASGFTFSSYGMHWVRQAPGKGLEWVAVIWYDGSNKYYADSVKGRFTISRDNSKNTLYLQMNSLRAEDTAVYYCARDPRGATLYYYYYGMDVWGQGTTVTVSS
VL: DIQMTQSPSSLSASVGDRVTITCRASQSINSYLDWYQQKPGKAPKLLIYAASSLQSGVPSRFSGSGSGTDFTLTISSLQPEDFATYYCQQYYSTPFTFGPGTKVEIK
B2: Anti-TIGIT antibody RG6058 (antibody, V domains shown)
VH: EVQLQQSGPGLVKPSQTLSLTCAISGDSVSSNSAAWNWIRQSPSRGLEWLGKTYYRFKWYSDYAVSVKGRITINPDTSKNQFSLQLNSVTPEDTAVFYCTRESTTYDLLAGPFDYWGQGTLVTVSS
VL: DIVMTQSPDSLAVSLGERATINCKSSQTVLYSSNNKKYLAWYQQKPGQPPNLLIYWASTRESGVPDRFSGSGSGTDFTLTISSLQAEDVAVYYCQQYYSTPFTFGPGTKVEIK
B3: anti-CTLA4/TIGIT antibody As-3 (bispecific antibody, human IgG1, kappa)
heavy 1: QVQLVESGGGVVQPGRSLRLSCAASGFTFSSYTMHWVRQAPGKGLEWVTFISYDGNNKYYADSVKGRFTISRDNSKNTLYLQMNSLRAEDTAIYYCARTGWLGPFDYWGQGTLVTVSSGGGGSSGAPRFLTRPKASVVSVGKDATLSCQIVGNPFPQVSWEKDKQPVTAGVRFRLAQDGDLYRLKILDLQLSDSGQYVCRARNAHGEAFACLGLQVDAEADKTHTCPPCPAPELLGGPDVFLFPPKPKDTLMISRTPEVTCVVVDVSHEDPEVKFNWYVDGVEVHNAKTKPREEQYNSTYRVVSVLTVLHQDWLNGKEYKCKVSNKALPLPEEKTISKAKGQPREPQVYTLPPCREEMTKNQVSLWCLVKGFYPSDIAVEWESNGQPENNYKTTPPVLDSDGSFFLYSKLTVDKSRWQQGNVFSCSVMHEALHNHYTQKSLSLSPGK
light 1: not shown
heavy 2: EVQLVQSGAEVKKPGASVKVSCKASGYTFTNYWMHWVRQAPGQGLEWMGRIDPDSTGSKYNEKFKTRVTMTRDTSTSTVYMELSSLRSEDTAVYYCAREGAYGYYFDYWGQGTLVTVSSASTKGPSVFPLAPSSKSTSGGTAALGCLVKDYFPEPVTVSWNSGALTSGVHTFPAVLQSSGLYSLSSVVTVPSSSLGTQTYICNVNHKPSNTKVDKKVEPKSCDKTHTCPPCPAPELLGGPDVFLFPPKPKDTLMISRTPEVTCVVVDVSHEDPEVKFNWYVDGVEVHNAKTKPREEQYNSTYRVVSVLTVLHQDWLNGKEYKCKVSNKALPLPEEKTISKAKGQPREPQVCTLPPSREEMTKNQVSLSCAVKGFYPSDIAVEWESNGQPENNYKTTPPVLDSDGSFFLVSKLTVDKSRWQQGNVFSCSVMHEALHNHYTQKSLSLSPGK
light 2: DIQMTQSPSSLSASVGDRVTITCRASENIYSYLAWYQQKPGKSPKLLIYNARTLAEGVPSRFSGSGSGTDFTLTISSLQPEDFATYYCQYHSGSPLPFGGGTKVEIKRTVAAPSVFIFPPSDEQLKSGTASVVCLLNNFYPREAKVQWKVDNALQSGNSQESVTEQDSKDSTYSLSSTLTLSKADYEKHKVYACEVTHQGLSSPVTKSFNRGEC
B4: anti-CTLA4/TIGIT antibody S-15 (bispecific antibody)
heavy: EVQLVQSGAEVKKPGASVKVSCKASGYTFTNYWMHWVRQAPGQGLEWMGRIDPDSTGSKYNEKFKTRVTMTRDTSTSTVYMELSSLRSEDTAVYYCAREGAYGYYFDYWGQGTLVTVSSASTKGPSVFPLAPSSKSTSGGTAALGCLVKDYFPEPVTVSWNSGALTSGVHTFPAVLQSSGLYSLSSVVTVPSSSLGTQTYICNVNHKPSNTKVDKKVEPKSCDGGGGSGGGGSGGGGSQVQLVESGGGVVQPGRSLRLSCAASGFTFSSYGMHWVRQAPGKGLEWVAVIWYDGSNKYYADSVKGRFTISRDNSKNTLYLQMNSLRAEDTAVYYCARDPRGATLYYYYYGMDVWGQGTTVTVSSGGGGSSGAPRFLTRPKASVVSVGKDATLSCQIVGNPFPQVSWEKDKQPVTAGVRFRLAQDGDLYRLKILDLQLSDSGQYVCRARNAHGEAFACLGLQVDAEADKTHTCPPCPAPELLGGPDVFLFPPKPKDTLMISRTPEVTCVVVDVSHEDPEVKFNWYVDGVEVHNAKTKPREEQYNSTYRVVSVLTVLHQDWLNGKEYKCKVSNKALPLPEEKTISKAKGQPREPQVYTLPPSREEMTKNQVSLTCLVKGFYPSDIAVEWESNGQPENNYKTTPPVLDSDGSFFLYSKLTVDKSRWQQGNVFSCSVMHEALHNHYTQKSLSLSPGK
light 1: B3 light 2
light 2: DIQMTQSPSSLSASVGDRVTITCRASQSINSYLDWYQQKPGKAPKLLIYAASSLQSGVPSRFSGSGSGTDFTLTISSLQPEDFATYYCQQYYSTPFTFGPGTKVEIKGGGGSGIPPKIECLPIDISIDEGKVLTVASAFTGEPTPEVTWSTGGRKIHSQEQGRFHIENTDDSTTLTIKDVQKQDGGLYTLTLRNEFGSDSATVNIHIRSI
notes: Symmetric bispecific antibody with one kind of heavy chain and two kinds of light chain

Columns and labels:
[1] = target: T1, human CTLA4 protein expressed on cells (CHOK1-CTLA4, HEK293-CTLA4) (human, UniProt P16410 36-223); experiment: flow cytometry on CHOK1-CTLA4 cells
T1 construct: whole, on cells; also called CHOK1-CTLA4 cells; HEK293-CTLA4 single-positive cells
T1 sequence (looked up): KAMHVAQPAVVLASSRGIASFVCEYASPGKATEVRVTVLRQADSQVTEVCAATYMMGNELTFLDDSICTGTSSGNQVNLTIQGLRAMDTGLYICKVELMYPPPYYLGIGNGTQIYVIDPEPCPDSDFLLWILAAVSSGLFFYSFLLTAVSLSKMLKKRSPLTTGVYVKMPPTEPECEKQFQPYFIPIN

[2] = target: T1, human CTLA4 protein expressed on cells …; experiment: flow cytometry on CHOK1-CTLA4 cells; remark: listed apart in the source
[3] = target: T1, human CTLA4 protein expressed on cells …; experiment: flow cytometry, blocking of CHOK1-CTLA4 cells binding to CHOK1-CD80 cells (competitor: CD80 on cells)
[4] = target: T2, human TIGIT protein expressed on cells (CHOK1-TIGIT) (human, UniProt Q495A1 22-244); experiment: flow cytometry on CHOK1-TIGIT cells
T2 construct: whole, on cells; also called CHOK1-TIGIT cells
T2 sequence (looked up): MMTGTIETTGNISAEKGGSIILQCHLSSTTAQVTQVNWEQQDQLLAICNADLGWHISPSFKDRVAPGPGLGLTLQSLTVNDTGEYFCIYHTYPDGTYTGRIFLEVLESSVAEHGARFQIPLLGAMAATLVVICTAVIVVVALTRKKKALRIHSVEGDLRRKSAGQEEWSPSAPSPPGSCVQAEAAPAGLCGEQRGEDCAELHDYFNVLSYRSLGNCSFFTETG

[5] = target: T2, human TIGIT protein expressed on cells …; experiment: flow cytometry, blocking of CHOK1-TIGIT cells binding to CHOK1-CD155 cells (competitor: CD155 on cells)
[6] = target: T3, human TIGIT (Acro Biosystems Cat#TIT-H52H5) (human, UniProt Q495A1 22-141); experiment: SPR (Biacore 8K), antibody captured on Protein A chip, antigen as analyte, 1:1 binding
T3 construct: Soluble bought protein; also called TIGIT protein; human TIGIT antigen
T3 sequence (looked up): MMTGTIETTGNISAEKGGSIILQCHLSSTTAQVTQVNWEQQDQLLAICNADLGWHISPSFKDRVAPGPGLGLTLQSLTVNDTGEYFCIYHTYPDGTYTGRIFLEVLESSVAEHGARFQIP

[7] = target: T3, human TIGIT (Acro Biosystems …); experiment: SPR (Biacore 8K), antigen captured by anti-His antibody on CM5 chip, antibody as analyte, 1:1 binding

Binder | EC50 [1] [nM] | EC50 [2] [nM] | IC50 [3] [nM] | EC50 [4] [nM] | IC50 [5] [nM] | Kd [6] [nM] | koff [6] [s⁻¹] | kon [6] [M⁻¹ s⁻¹] | Kd [7] [nM] | koff [7] [s⁻¹] | kon [7] [M⁻¹ s⁻¹]
B1 | 1.27 | 0.53 | 0.49 | – | – | – | – | – | – | – | –
B2 | – | – | – | 0.48 | 0.67 | – | – | – | – | – | –
B3 | – | – | – | 0.72 | 1.44 | 0.0411 | 7.13e-05 | 1.73e+06 | 0.535 | 0.00052 | 972000
B4 | – | 3.35 | 1.42 | 0.43 | 0.42 | – | – | – | – | – | –
